Test results as given in the supplement of paper PMC10065799, “High-throughput profiling of sequence recognition by tyrosine kinases and SH2 domains using bacterial peptide display” (eLife, 2023).

target: c-Src SH2; test: SH2 binding enrichment of the phosphorylated peptide, bacterial display (enrichment ratio); higher = better substrate or ligand; peptides without Tyr show the background
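Throughout, for SH2 binding enrichment of the phosphorylated peptide, bacterial display: peptide library displayed on the E. coli surface as eCPX fusions, selected cells deep-sequenced, score is each peptide's frequency after selection divided by its frequency in the input.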
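Throughout, for phosphorylation enrichment, bacterial display: 11-residue human phosphosite peptides and single-mutation variants displayed on the E. coli surface, counted by deep sequencing, each peptide's frequency after selection divided by its frequency in the unselected input library; frequency after pTyr selection over input frequency; kinase dosed for 20-30% of maximal phosphorylation in three min.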

Sequence | SH2 binding enrichment
FSKTQYNQVPS [CXADR_Y318_YF] | 0.56
SHISGYAALRR [RAPH1_Y1226_T1228A] | 0.318
ASSPVYVPTTR [GATA6_Y188] | 0.433
RVILRYVNPGN [LAMA3_Y791_T796N] | 0.944
EIELAYRRRPP [GRIN2B_Y1109] | 0.387
DPGVSYHTREE [PDHA1_Y301_R302H] | 0.359
SLIDMYSEVPD [OPA1_Y268_L272P] | 0.545
MGRVKYGAFIN [GLB1_Y485_N484K_YF] | 1.23
REENGYNTFAS [FGF10_Y161_I156R_YF] | 1.14
LFRFGYANTSE [SI_Y1233_C1229Y_YF] | 0.936
VYYYSYLLKNH [PTEN_Y180] | 0.847
VILARYGPAWR [CYP2D6_Y124_F120I] | 0.385
FQKNIYSEELR [LMNA_Y211] | 0.591
RQNNSYTCYTA [SLC20A2_Y386_R382Q] | 0.664
KFDLMYAKCAF [TUBA1A_Y399_R402C] | 0.557
NTGGYYDLYGG [PTPN11_Y63_D61G] | 5.92
LENQTYFKSFE [AKAP9_Y2482] | 0.569
LENSTYQFIRV [CRB1_Y760_YF] | 0.546
SVTCTFSPALN [TP53_Y126_Y126F] | 0.473
ESMLRYDVYGG [STOX1_Y607_E608D] | 0.723
KEAVLYPHLPP [SQSTM1_Y383_A381V] | 0.514
PYSSPYENSLI [EPOR_Y489_N487S] | 5.18
MKSIKYMDKEV [CCDC60_Y41_I46V] | 0.413
LHRAHYDLHHT [AHSG_Y314_R317H] | 1.86
HGEAFYSEVKA [PAK5_Y182_P187A_YF] | 2.48
YFVVEYRNQKP [MUC17_Y4332_D4334N] | 2.83
TAALWYIFSHT [ENG_Y612_YF] | 0.713
EAVSIYQFYGQ [CBLC_Y402_H405Y] | 0.574
PDGHEYIFVDP [PDGFRA_Y572_YF] | 1.65

target: SHP2-C SH2; test: as above

Sequence | SH2 binding enrichment
FSKTQYNQVPS [CXADR_Y318_YF] | 1.03
SHISGYAALRR [RAPH1_Y1226_T1228A] | 0.51
ASSPVYVPTTR [GATA6_Y188] | 0.71
RVILRYVNPGN [LAMA3_Y791_T796N] | 0.873
EIELAYRRRPP [GRIN2B_Y1109] | 0.569
DPGVSYHTREE [PDHA1_Y301_R302H] | 0.713
SLIDMYSEVPD [OPA1_Y268_L272P] | 0.7
MGRVKYGAFIN [GLB1_Y485_N484K_YF] | 1.59
REENGYNTFAS [FGF10_Y161_I156R_YF] | 0.637
LFRFGYANTSE [SI_Y1233_C1229Y_YF] | 0.95
VYYYSYLLKNH [PTEN_Y180] | 0.941
VILARYGPAWR [CYP2D6_Y124_F120I] | 0.547
FQKNIYSEELR [LMNA_Y211] | 1.5
RQNNSYTCYTA [SLC20A2_Y386_R382Q] | 0.644
KFDLMYAKCAF [TUBA1A_Y399_R402C] | 0.473
NTGGYYDLYGG [PTPN11_Y63_D61G] | 0.871
LENQTYFKSFE [AKAP9_Y2482] | 0.518
LENSTYQFIRV [CRB1_Y760_YF] | 0.622
SVTCTFSPALN [TP53_Y126_Y126F] | 0.494
ESMLRYDVYGG [STOX1_Y607_E608D] | 0.62
KEAVLYPHLPP [SQSTM1_Y383_A381V] | 0.658
PYSSPYENSLI [EPOR_Y489_N487S] | 0.773
MKSIKYMDKEV [CCDC60_Y41_I46V] | 0.515
LHRAHYDLHHT [AHSG_Y314_R317H] | 1.92
HGEAFYSEVKA [PAK5_Y182_P187A_YF] | 0.931
YFVVEYRNQKP [MUC17_Y4332_D4334N] | 3.19
TAALWYIFSHT [ENG_Y612_YF] | 0.785
EAVSIYQFYGQ [CBLC_Y402_H405Y] | 0.857
PDGHEYIFVDP [PDGFRA_Y572_YF] | 0.761

target: Grb2 SH2 (UniProt P62993); test: as above
Sequence (P62993 whole entry, looked up): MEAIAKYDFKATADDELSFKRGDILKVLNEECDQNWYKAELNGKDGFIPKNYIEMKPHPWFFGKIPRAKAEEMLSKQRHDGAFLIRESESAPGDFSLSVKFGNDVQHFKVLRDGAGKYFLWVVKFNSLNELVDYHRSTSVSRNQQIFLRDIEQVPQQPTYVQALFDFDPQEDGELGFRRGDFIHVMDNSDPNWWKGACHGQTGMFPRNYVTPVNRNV

Sequence | SH2 binding enrichment
FSKTQYNQVPS [CXADR_Y318_YF] | 0.962
SHISGYAALRR [RAPH1_Y1226_T1228A] | 0.56
ASSPVYVPTTR [GATA6_Y188] | 0.876
RVILRYVNPGN [LAMA3_Y791_T796N] | 1.17
EIELAYRRRPP [GRIN2B_Y1109] | 0.642
DPGVSYHTREE [PDHA1_Y301_R302H] | 0.65
SLIDMYSEVPD [OPA1_Y268_L272P] | 0.675
MGRVKYGAFIN [GLB1_Y485_N484K_YF] | 1.62
REENGYNTFAS [FGF10_Y161_I156R_YF] | 0.728
LFRFGYANTSE [SI_Y1233_C1229Y_YF] | 1.48
VYYYSYLLKNH [PTEN_Y180] | 0.965
VILARYGPAWR [CYP2D6_Y124_F120I] | 0.828
FQKNIYSEELR [LMNA_Y211] | 1.02
RQNNSYTCYTA [SLC20A2_Y386_R382Q] | 0.739
KFDLMYAKCAF [TUBA1A_Y399_R402C] | 0.687
NTGGYYDLYGG [PTPN11_Y63_D61G] | 0.928
LENQTYFKSFE [AKAP9_Y2482] | 0.978
LENSTYQFIRV [CRB1_Y760_YF] | 0.607
SVTCTFSPALN [TP53_Y126_Y126F] | 0.627
ESMLRYDVYGG [STOX1_Y607_E608D] | 0.996
KEAVLYPHLPP [SQSTM1_Y383_A381V] | 0.911
PYSSPYENSLI [EPOR_Y489_N487S] | 2.51
MKSIKYMDKEV [CCDC60_Y41_I46V] | 0.742
LHRAHYDLHHT [AHSG_Y314_R317H] | 1.95
HGEAFYSEVKA [PAK5_Y182_P187A_YF] | 1.21
YFVVEYRNQKP [MUC17_Y4332_D4334N] | 1.58
TAALWYIFSHT [ENG_Y612_YF] | 1.02
EAVSIYQFYGQ [CBLC_Y402_H405Y] | 0.821
PDGHEYIFVDP [PDGFRA_Y572_YF] | 0.662

target: FGFR3 (UniProt P22607); test: phosphorylation enrichment, bacterial display (enrichment ratio); higher = better substrate or ligand; peptides without Tyr show the background
Sequence (P22607 whole entry, looked up): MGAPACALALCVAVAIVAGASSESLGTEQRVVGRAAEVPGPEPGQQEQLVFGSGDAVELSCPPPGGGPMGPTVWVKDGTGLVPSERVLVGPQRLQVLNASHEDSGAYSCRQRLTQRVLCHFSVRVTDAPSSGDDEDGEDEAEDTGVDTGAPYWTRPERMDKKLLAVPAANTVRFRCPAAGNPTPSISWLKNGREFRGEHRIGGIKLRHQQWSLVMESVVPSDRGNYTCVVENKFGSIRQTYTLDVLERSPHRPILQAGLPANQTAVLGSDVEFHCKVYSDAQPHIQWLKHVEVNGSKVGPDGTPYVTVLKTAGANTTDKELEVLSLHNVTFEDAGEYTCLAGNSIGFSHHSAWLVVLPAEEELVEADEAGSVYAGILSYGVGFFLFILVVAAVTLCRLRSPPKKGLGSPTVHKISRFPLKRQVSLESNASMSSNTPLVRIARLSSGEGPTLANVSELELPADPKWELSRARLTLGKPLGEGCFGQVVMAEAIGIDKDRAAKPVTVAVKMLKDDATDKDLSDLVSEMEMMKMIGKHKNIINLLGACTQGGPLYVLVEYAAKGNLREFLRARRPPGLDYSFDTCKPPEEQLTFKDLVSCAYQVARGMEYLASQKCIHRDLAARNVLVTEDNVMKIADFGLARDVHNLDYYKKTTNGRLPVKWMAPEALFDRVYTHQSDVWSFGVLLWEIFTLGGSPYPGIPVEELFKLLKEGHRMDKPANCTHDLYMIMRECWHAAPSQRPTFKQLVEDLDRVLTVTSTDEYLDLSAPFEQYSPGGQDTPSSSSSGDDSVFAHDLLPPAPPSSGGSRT

Sequence | phosphorylation enrichment
FSKTQYNQVPS [CXADR_Y318_YF] | 0.556
SHISGYAALRR [RAPH1_Y1226_T1228A] | 0.554
ASSPVYVPTTR [GATA6_Y188] | 0.428
RVILRYVNPGN [LAMA3_Y791_T796N] | 1.12
EIELAYRRRPP [GRIN2B_Y1109] | 0.455
DPGVSYHTREE [PDHA1_Y301_R302H] | 0.548
SLIDMYSEVPD [OPA1_Y268_L272P] | 0.895
MGRVKYGAFIN [GLB1_Y485_N484K_YF] | 0.453
REENGYNTFAS [FGF10_Y161_I156R_YF] | 0.862
LFRFGYANTSE [SI_Y1233_C1229Y_YF] | 0.497
VYYYSYLLKNH [PTEN_Y180] | 3.68
VILARYGPAWR [CYP2D6_Y124_F120I] | 0.608
FQKNIYSEELR [LMNA_Y211] | 1.2
RQNNSYTCYTA [SLC20A2_Y386_R382Q] | 0.659
KFDLMYAKCAF [TUBA1A_Y399_R402C] | 0.841
NTGGYYDLYGG [PTPN11_Y63_D61G] | 10.8
LENQTYFKSFE [AKAP9_Y2482] | 0.903
LENSTYQFIRV [CRB1_Y760_YF] | 3.21
SVTCTFSPALN [TP53_Y126_Y126F] | 1.03
ESMLRYDVYGG [STOX1_Y607_E608D] | 0.705
KEAVLYPHLPP [SQSTM1_Y383_A381V] | 0.646
PYSSPYENSLI [EPOR_Y489_N487S] | 0.506
MKSIKYMDKEV [CCDC60_Y41_I46V] | 0.545
LHRAHYDLHHT [AHSG_Y314_R317H] | 0.857
HGEAFYSEVKA [PAK5_Y182_P187A_YF] | 2.63
YFVVEYRNQKP [MUC17_Y4332_D4334N] | 9.02
TAALWYIFSHT [ENG_Y612_YF] | 1.03
EAVSIYQFYGQ [CBLC_Y402_H405Y] | 1.77
PDGHEYIFVDP [PDGFRA_Y572_YF] | 1.99
